T1: human IL-23R extracellular domain (ECD) protein (human, UniProt Q5VWK5 24-355)
T1 construct: Recombinant ECD; also called hu IL-23R ECD
T1 sequence: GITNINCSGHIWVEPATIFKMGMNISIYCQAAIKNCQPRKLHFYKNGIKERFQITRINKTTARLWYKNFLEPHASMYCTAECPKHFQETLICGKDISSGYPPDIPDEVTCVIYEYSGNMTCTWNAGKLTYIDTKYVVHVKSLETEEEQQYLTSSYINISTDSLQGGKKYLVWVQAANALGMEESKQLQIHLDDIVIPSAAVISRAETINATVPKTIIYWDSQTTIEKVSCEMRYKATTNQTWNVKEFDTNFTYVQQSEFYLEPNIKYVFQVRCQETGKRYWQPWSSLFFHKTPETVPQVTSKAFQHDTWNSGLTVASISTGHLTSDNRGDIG

T2: human IL-23R expressed on the cell surface of stably transfected iLite and HEK cell lines (human, UniProt Q5VWK5 24-629)
T2 construct: whole, on cells; Same receptor on two transfected cell lines; the cell line is named under assay; also called human IL-23R iLite cells; human IL-23R HEK cells
T2 sequence (looked up): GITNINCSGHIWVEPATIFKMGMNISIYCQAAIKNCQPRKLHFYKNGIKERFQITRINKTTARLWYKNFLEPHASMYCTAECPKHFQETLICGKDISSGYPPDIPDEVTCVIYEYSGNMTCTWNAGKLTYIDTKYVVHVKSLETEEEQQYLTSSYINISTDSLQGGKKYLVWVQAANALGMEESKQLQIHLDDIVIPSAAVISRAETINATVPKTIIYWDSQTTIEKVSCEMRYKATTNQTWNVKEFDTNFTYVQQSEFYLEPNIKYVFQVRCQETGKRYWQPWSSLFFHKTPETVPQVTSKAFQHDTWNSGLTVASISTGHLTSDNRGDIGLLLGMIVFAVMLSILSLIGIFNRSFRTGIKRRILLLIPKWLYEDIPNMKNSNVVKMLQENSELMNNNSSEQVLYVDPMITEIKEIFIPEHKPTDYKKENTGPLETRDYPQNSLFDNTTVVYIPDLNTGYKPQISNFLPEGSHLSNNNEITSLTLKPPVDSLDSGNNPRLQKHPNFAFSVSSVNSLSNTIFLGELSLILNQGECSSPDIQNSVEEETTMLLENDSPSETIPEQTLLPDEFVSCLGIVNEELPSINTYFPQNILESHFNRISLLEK

B1: I23RB56 (antibody, mouse IgG2a, kappa, V domains shown)
VH: EVKLVESGGGLVKPGGSLKLSCAASGFTFSSYAMSWVRQTPEKRLEWVAAINSNDGSTYYPDTVKDRFTISRDNAKNTLYLQMSSLRSEDTALYYCARHFLYFSNFYYFDYWGQGTTLTVSS
VL: DIVMTQSPKFLLVSAGDRVTITCKASQSVSNDVAWYQQKPGQSPKLLIYYASNRYTGVPDRFTGSGYGTVFTFTISTVQAEDLAVYFCQQDYSSPFTFGSGTKLEIKR
notes: immunization; mouse IgG2a/kappa
B2: I23RB85 (antibody, mouse IgG2a, kappa, V domains shown)
VH: DVQLQESGPGLVAPSQSLSITCTVSGFSFNTYAITWVRQPPGRGLEWLGVLWPGGGISYNLALKSRLTISRDSSKSQVFLEMNSLQTDDTARYYCARNWRHYDGSYAMDFWGQGTSVTVSS
VL: DIVLTQSPLSLFVSLGDQASISCRSSQSLVHSNGNTYLHWYLQKPGQSPKLLIYKVSNRFSGVPDRFSGSGSGTDFTLKISRVEAEDLGVYFCSQSTHVPWTFGGGTRLEIKR
notes: as for B1
B3: I23RB42 (antibody, mouse IgG2a, kappa, V domains shown)
VH: EVQLQQSGAELVKPGASVKISCKASGYSFTDYIMNWVKQSHGKSLEWIGNINPYFGFTSYNQEFKGKATLTVDKSSSTAYMLLNSLTSEDSAVYYCSRGSYYGYETFFDYWGQGTTLTVSS
VL: DIVLTQTAPSVPVTPGESVSISCRSSKSLLHSNGNTYLYWFLQRPGQSPQLLIYRMSNLASGVPDRFSGSGSGTAFTLRISRVEAEDVGVYYCMQHLEYPYTFGSGTRLEIKR
notes: as for B1
B4: I23RB318 (antibody, mouse IgG2a, kappa, V domains shown)
VH: QVQLVQSGAEVKKPGSSVKVSCKASGGTFSSYAISWVRQAPGQGLEWMGGIIPIFGTANYAQKFQGRVTITADESTSTAYMELSSLRSEDTAVYYCARVRARHRGSFDYWGQGTLVTVSS
VL: DIQMTQSPSSLSASVGDRVTITCRASQSIDRWLNWYQQKPGKAPKLLIYYASSLQSGVPSRFSGSGSGTDFTLTISSLQPEDFATYYCQQSYSTPLTFGQGTKVEIKR
notes: phage display; human V, mouse IgG2a/kappa
B5: I23RB153 (antibody, mouse IgG2a, kappa, V domains shown)
VH: EVKLVESGGGLVQPGGSLKLSCAASGFTFSSDTMSWVRQTPEKRLELVAEISSNGGSTYHIDTVKGRFTISRDNAKNTLYLQMSSLKSEDTAMYYCASPGYPWFAYWGQGTTVTVSA
VL: DIVMTQSHRFMSTSVGERVSITCKASQDVGNAVAWYQQKPGQSPKLLIYWTSTRHNGVPDRFTGSGSGTDFTLTISNVQGEDLADYFCQQYNRYPLTFGSGTKLEIKR
notes: as for B1
B6: I23RB45 (antibody, mouse IgG2a, kappa, V domains shown)
VH: QVTLKESGPGILQPSQTLSLTCSFSGFSLSTYGMGVSWIRQPSGKGLEWLAHIYWDDDKRYNPSLKSRLTISKDTSNNQVFLKITSVDTADTATYYCAQRALPLLGQKAPFDYWGQGTTLTVSS
VL: DIVLTQSQKFISTSVGDRVSITCKASQNVRTAVAWYQQKPGQSPKLLIYLPSNRHTGVPDRFTGSGSGTVFTLTISNVQSEDQADYFCLQHWNYPLTFGAGTKLELKR
notes: as for B1
B7: I23RB30 (antibody, mouse IgG2a, kappa, V domains shown)
VH: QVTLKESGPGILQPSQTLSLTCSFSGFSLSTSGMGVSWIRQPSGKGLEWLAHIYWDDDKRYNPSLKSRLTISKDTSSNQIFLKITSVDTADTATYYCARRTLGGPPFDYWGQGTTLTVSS
VL: B6 VL with K9R, I11M, V29I, L46A, V70D, Q83L
notes: as for B1
B8: I23RB6 (antibody, mouse IgG2a, kappa, V domains shown)
VH: QVQLVQSGAEVKKPGSSVKVSCKASGGTFSSYAISWVRQAPGQGLEWMGGIIPIFGTANYAQKFQGRVTITADESTSTAYMELSSLRSEDTAVYYCARGRYIRSYDYFDYWGQGTLVTVSS
VL: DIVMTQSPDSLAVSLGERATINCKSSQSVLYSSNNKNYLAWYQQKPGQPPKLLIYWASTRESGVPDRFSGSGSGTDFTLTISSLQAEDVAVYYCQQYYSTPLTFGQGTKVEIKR
notes: as for B4
B9: I23RB9 (antibody, mouse IgG2a, kappa, V domains shown)
VH: QVQLVQSGAEVKKPGSSVKVSCKASGGTFSSYAISWVRQAPGQGLEWMGGIIPIFGTANYAQKFQGRVTITADESTSTAYMELSSLRSEDTAVYYCARDRSYSYGLSGLGYYGFDYWGQGTLVTVSS
VL: EIVLTQSPATLSLSPGERATLSCRASQSVSSYLAWYQQKPGQAPRLLIYDASNRATGIPARFSGSGSGTDFTLTISSLEPEDFAVYYCQQRSNWPLTFGQGTKVEIKR
notes: as for B4
B10: I23RB278 (antibody, mouse IgG2a, kappa, V domains shown)
VH: EVQLLESGGGLVQPGGSLRLSCAASGFTFSSYAMSWVRQAPGKGLEWVSAISGSGGSTYYADSVKGRFTISRDNSKNTLYLQMNSLRAEDTAVYYCVRGGSLGGGFYFDYWGQGTLVTVSS
VL: not shown
notes: as for B4
B11: I23RB328 (antibody, mouse IgG2a, kappa, V domains shown)
VH: B8 VH
VL: B9 VL with I58V, S67T, E79Q, F83V, S92N, N93S, W94T
notes: as for B4
B12: I23RB330 (antibody, mouse IgG2a, kappa, V domains shown)
VH: B9 VH
VL: B9 VL with W94T
notes: as for B4
B13: I23RB332 (antibody, mouse IgG2a, kappa, V domains shown)
VH: QVQLQQPGAELVMPGASVKLSCKASGYTFTSYWMHWVKQRPGQGLEWIGEIDPSDSYTNYNQKFKGKSTLTVDKSSSTAYMQLSSLTSEDSAVYYCARSYAFDYWGQGTTVTVSS
VL: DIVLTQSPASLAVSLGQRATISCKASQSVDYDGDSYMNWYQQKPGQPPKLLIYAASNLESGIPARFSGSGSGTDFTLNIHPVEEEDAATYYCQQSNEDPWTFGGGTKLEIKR
notes: phage display; mouse V, mouse IgG2a/kappa

Residue numbers refer to the chain shown, from its start. Where only a bound is given, the exact number is not on record here.

The source of these data is patent US20250179196A1 (Janssen / Centocor, published 2025).

In one experiment the target is T1, human IL-23R extracellular domain (ECD) …. In words: column 'Affinity to hu IL-23R ECD' (summary of SPR data).
By Kd is commonly meant the equilibrium constant for the complex coming apart. High values mean a looser complex, low ones a tighter complex. For B1, the Kd lay within 26 to 68 nM.
Same read-out and setting: in the case of B2 it was 1 nM; in that of B3, at most 0.1 nM; in that of B4, 21 nM.
On the same count and under the same terms, with B5 the figure was 2 nM; with B6, 2 nM.
The same measure, in the same setting: with B7 the figure was 36 to 46 nM.

In the next experiment the target is T2, human IL-23R expressed on the cell …. Description: flow cytometry on human IL-23R iLite cells, Expt A (1-point). The protocol: Human IL-23R iLiTe cell single concentration mAb Binding. Anti-IL-23R mouse IgG₂ₐ mAbs derived from phage panning were tested for binding to human IL-23R expressing iLiTe cells, where a PE conjugated anti mouse secondary antibody detected mAbs bound to the receptor on the cells. […] The next day 100,000 cells were added to each well of a 96 well V bottom plate (Costar, Catalog #3357), centrifuged at 450× gravity for 2 minutes, and then supernatants were decanted. […] Antibodies diluted to 3 μg/mL in Stain Buffer (BSA) (BD Pharmagen, Catalog #554657) were added at 100 μL/well and incubated on ice for 50 minutes, then plates were centrifuged and supernatants were decanted. […] Cells were washed by adding 100 μL/well of Stain Buffer followed by centrifugation and decanting of the supernatants. Cells were resuspended in 100 μL/well of Stain Buffer and analyzed on the Becton Dickenson LSR II FACS instrument with HTS module. Data was analyzed using FlowJo software (Treestar) to obtain geometric mean fluorescence intensities.
B8: the “MFI @ 20 nM” value was found to be 139 MFI.
The same measure, in the same setting: with B9 the figure was 86 MFI.

The next experiment shares this target. In words: flow cytometry on human IL-23R HEK cells, Expt D (8-point, 96well). In short, it runs like this:
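Serially diluted IL-23R mAbs bound to mixed HEK-IL-23R and parental HEK cells for 30 min at 37 °C, in duplicate. After washes, 647 detection antibody geometric MFI measured on single viable (Sytox Green-negative) cells and fitted to a variable-slope dose-response against log mAb concentration.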
In general terms: In flow cytometry, cells or beads pass a laser one at a time.
The term EC50 denotes the midpoint of the concentration-response curve. Low readings indicate greater potency, high ones weaker potency. The molecule B1 had an EC50 of 0.7 nM.
Molecule B2 returned an EC50 of around 0.6 nM.
Take B3: the midpoint of the response, the EC50, lay at 0.2 nM.
Turning to B4, the EC50 is 0.5 nM.
For the molecule B5, the EC50 is 4.4 nM.
The molecule B6 registered an EC50 of 0.4 nM.
Molecule B7 had an EC50 of 1.2 nM.

A further experiment has the same target. Description: flow cytometry on human IL-23R HEK cells, Expt E (11-point, 384well). A digest of the protocol:
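Antibody bound to HEK-IL-23R cells 30 min at 37 °C over 11 concentrations; after washes, Sytox Green added and cells run on iQue. Geometric MFI of 647 detection antibody on single viable cells fitted by variable-slope dose–response.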
For the molecule B1, the EC50 was above 50 nM and the “MFI (6.4 nM)” value turned out to be 118000 MFI.
In the case of B2, the EC50 was 13.5 nM and the “MFI (6.4 nM)” value is 64000 MFI.
In the same order, the values of B3 are 3.1 nM and 353000 MFI.
Take B4: the EC50 was found to be 7.1 nM and the “MFI (6.4 nM)” value was found to be 196000 MFI.
For B5, the EC50 is above 50 nM and the “MFI (6.4 nM)” value came out at 52800 MFI.
For B6, a half-maximal effect (EC50) was put at 4.5 nM and the “MFI (6.4 nM)” value worked out at 228000 MFI.
In the case of B7, it took 8.3 nM to reach a half-maximal effect (EC50) and the “MFI (6.4 nM)” value was determined as 185000 MFI.

For another experiment the target is unchanged. Description: flow cytometry on human IL-23R HEK cells, Expt D (8-point, 96well); legend: N-No cell binding observed. The protocol:
HEK-IL-23R cell concentration response mAb binding (8-point, 96-well assay). […] HEK-IL-23R and HEK-parental cells (12.5 μL of each, 120000 cells total) were plated in 2× replicate on 96-well V-bottom plates (Corning, Cat #3357) into 37° C. warmed Assay medium containing serially diluted IL-23R mAbs to a final volume of 150 μL. IL-23R mAbs were allowed to bind to cells for 30 minutes, at 37° C. […] Cells were next washed twice in ice-cold stain buffer, then resuspended in a final volume of 30 μL with Sytox Green viability dye (ThermoFisher, Cat #S7020). Plates were kept on ice until run for analysis on the iQue. All washes were performed by centrifugation (800 rcf, 3 minutes) followed by flick decantation to remove supernatants. Cell-binding to HEK-IL-23R cells was measured with FlowJo, by gating for single, viable cells and determining the geometric mean fluorescence intensity (MFI) for the 647 detection antibody. Geometric mean fluorescence intensities were plotted over log mAb concentrations fitted with a dose response curve with variable slope using GraphPad Prism.
On to B10, for which the binding result is listed as “no binding”.
As for B11, the binding result is listed as “no binding”.
As to B12, the binding result is recorded as “no binding”.
For B13, the binding result is “no binding”.
